This note sets out measurements from paper PMC10234869.

B1: Frey regulator of sperm-oocyte fusion 1 with C-terminal 3xFLAG tag (Frey1-3xFLAG), wild type [murine] / Signal Peptide Peptidase-like 2c, C-terminally myc-tagged (SPPL2c-myc) [murine] (parent)
chain 1: MVLAMLGALYPRAGLSLFLFYLILAGALLRPQPQRSQQSVPEEFSAPLELLQPLSGLVDDYGLRPKHPRPGGPRPLLSQAQQRKRDGPNMADYYYDVNL
chain 2: EYGLVRVVSKNWSKDYCVLYSSDYVNLPRDLHHAPLLSLHDGTKTPWCPDEDSFHQAQDSSPRQRPLHQTTTMVTRGNCSFYAKGWLAQDQGAQGLLIVSRARNQQCSDTISKPQDPSKPWPALTIPVAVLRYTDMLDIVSHTYGDTDVRVAMFAPLEPVTDYNMAIIFILAVGTVAAGGYWAGLMEANKLQRRQAQRGGGLGGHNQQQTVAAERSQRAWEDDDFEDAPMDFTPAMTGAVVTMSCSIMILLYFFYDCFVYVMIGIFSLGASTGLYSCLAPILCHLPLWRYQWVLPGQRVSVTWPLLLLAGLCAMVTVLWVIHRNEDHWAWLLQDTLGVAYCLFVLRRVRLPTFKNCTLFLLALLAFDVFFVFITPLFTKTGESIMVEVASGPADSSSHERLPMVLKVPRLSFSALTLCNQPFSILGFGDIVVPGFLVAYCHRFDMQVQSRQVYYMACTVAYAVGLLVTFVAMILMQMGQPALLYLVSSTLLTSLAVATCRQEFTLFWTGQGRAKIPAEPVAQPCIASAVGSKMKLEDAKDSRTTNRFEQAVDGESGDLESSTGDDMAEMVTLSEDEATSPEGHSESSEGWSDTNLDPNELPSGSPMALEAMLIPLIQPIPHPSELGHIRTQSRVHDSSLPWMGLHKRKGLKVKKSMSAQAPL

In the first assay the parent is B1. The assay can be described thus: co-immunoprecipitation (anti-FLAG IP, Western blot quantification). The settings on record: with Signal Peptide Peptidase-like 2c, transiently transfected HEK cells, n = 6, parent: 100, read off a plot. In general terms: A western blot detects proteins with antibodies after separation by electrophoresis.
Take chain 1 P11L G14L S16T G26A: the percent of parent (% of Frey1 Wt) was found to be 17.

In a further assay the parent is B1. In words: competition co-immunoprecipitation pulling on Frey1 (anti-FLAG IP, Western blot quantification). Conditions: with Signal Peptide Peptidase-like 2c, co-expression of HA-HO-1 as competitor, value is relative to the same Frey1 variant without HA-HO-1 (EV = 100), transiently transfected HEK cells, n = 3, parent: 100, read off a plot.
Turning to chain 1 P11L G14L S16T G26A, the co-precipitated SPPL2c, percent of no-competitor control was 59 % of EV.
